Data taken from patent publication US9474782B2, “Use of decorin for increasing muscle mass” (Association Francaise contre les Myopathies, priority 2009, dated 2016).
Values joined by “and” are separate entries in the source; they are usually repeats but may differ in a detail not shown here. Identical values can stand only once.

Experiments:
mdx mice = assay: Weight of tibialis anterior muscles after intramuscular injection into dystrophic mdx mice; type: in vivo, mouse; conditions: for Activity of decorin fragment on muscle growth (ability to increase muscle mass), in words: decorin fragments, intramuscular injection
Experimental: The protein used was recombinant mouse decorin (mDecorin) of sequence SEQ ID NO: 6, provided by R&D Systems. Twenty-four to forty hours before the injection, 100 μl of 150 mM sterile NaCl and 6 μl of 250 μM ZnCl2 were added to 100 μg of mDecorin powder. The final volume was 106 μl with a final concentration of approximately 1 μg/μl. For the injections into the control muscles a mixture was also prepared of 100 μl of 150 mM NaCl and 6 μl of 250 μM ZnCl2. All these solutions, after being vortexed, were stored at 4° C. In Vivo Injection mdx dystrophic ([…] muscular dystrophy) or gamma-sarcoglycan −/− mice were used that were at least 6 weeks old. 20 μg of mDecorin, i.e. 22 μl of the solution described above (20 μg Decorin+15 μM ZnCl2/22 μl NaCl), were injected into the left tibialis anterior (LTA), the muscle treated. 22 μl of the control solution described above (15 μM ZnCl2/22 μl NaCl) were administered into the control muscle, the right tibialis anterior (RTA). A specific number of days after injection, the mice were sacrificed and the RTA and LTA were removed, weighed then frozen for further histological study. Preparation and Injection of the Solution Containing the Peptide mDCN 31-71: […] It was dissolved at 2 mg/ml in 150 mM NaCl and stored at −80° C. For injections, the preparation protocol was identical to that used for the protein, i.e. 24-40 hours before injection, the desired amount of peptide was removed from the stock solution and mixed with a solution of zinc chloride (ZnCl2) and 150 mM NaCl, to produce a final zinc concentration of 15 μM. The injection protocol was identical to that used for the protein. The RTA and LTA muscles were collected 7 (D7), 14 (D14) or 21 (D21) days after the injection and weighed. The experiment was repeated on three separate mice each time. The results are summarised in the following tables: mdx Mice were Injected Intramuscularly into the TA with the Following Formulations: LTA 1: 65 μg peptide 41 DCN+15 μM ZnCl2/33 μl NaCl; RTA 2: 15 μM ZnCl2/33 μl NaCl. At D18, the mice were sacrificed and the weight of the RTA and LTA muscles was measured.

[1] = test system: gamma-sarcoglycan -/- mice; assay: Weight of tibialis anterior muscles at D18 after intramuscular injection into dystrophic gamma-sarcoglycan -/- mice; type: in vivo; conditions: D18, one value per mouse
Experimental: The protein used was recombinant mouse decorin (mDecorin) of sequence SEQ ID NO: 6, provided by R&D Systems. Twenty-four to forty hours before the injection, 100 μl of 150 mM sterile NaCl and 6 μl of 250 μM ZnCl2 were added to 100 μg of mDecorin powder. The final volume was 106 μl with a final concentration of approximately 1 μg/μl. For the injections into the control muscles a mixture was also prepared of 100 μl of 150 mM NaCl and 6 μl of 250 μM ZnCl2. All these solutions, after being vortexed, were stored at 4° C. In Vivo Injection mdx dystrophic ([…] muscular dystrophy) or gamma-sarcoglycan −/− mice were used that were at least 6 weeks old. 20 μg of mDecorin, i.e. 22 μl of the solution described above (20 μg Decorin+15 μM ZnCl2/22 μl NaCl), were injected into the left tibialis anterior (LTA), the muscle treated. 22 μl of the control solution described above (15 μM ZnCl2/22 μl NaCl) were administered into the control muscle, the right tibialis anterior (RTA). A specific number of days after injection, the mice were sacrificed and the RTA and LTA were removed, weighed then frozen for further histological study. A second series of experiments was performed on four gamma-sarcoglycan −/− mice. The protocol was identical to that described for mdx mice. The mice were sacrificed on D18.

SEQ ID NO:15: fragment of 30 residues (residues 42 to 71 of murine decorin SEQ ID NO: 6) (DNPLISMCPYRCQCHLRVVQCSDLGLDKVP; murine 42-71 DCN)
Activity of decorin fragment on muscle growth (ability to increase muscle mass), in words (mdx mice): also active

mDCN 31-71: peptide (SEQ ID NO: 7) corresponding to residues 31-71 of murine decorin, zinc-binding N-terminal part, synthesised by NeoMPS (DEASGIIPYDPDNPLISMCPYRCQCHLRVVQCSDLGLDKVP; murine 31-71 DCN)
Weight of treated muscle (LTA) (mdx mice; 65 μg peptide + 15 μM ZnCl2/33 μl NaCl intramuscular into left tibialis anterior, D18, one value per mouse): 0.0583 g and 0.0468 g and 0.05 g | Growth (mdx mice; 65 μg peptide + 15 μM ZnCl2/33 μl NaCl intramuscular, treated LTA vs control RTA, D18, one value per mouse): 8.77% and 19.39% and 24.69% | Activity of decorin fragment on muscle growth (ability to increase muscle mass), in words (mdx mice): had the required activity

B1: mDecorin: recombinant mouse decorin (mDecorin) of sequence SEQ ID NO: 6, provided by R&D Systems (protein)
chain: MKATLIFFLLAQVSWAGPFEQRGLFDFMLEDEASGIIPYDPDNPLISMCPYRCQCHLRVVQCSDLGLDKVPWDFPPDTTLLDLQNNKITEIKEGAFKNLKDLHTLILVNNKISKISPEAFKPLVKLERLYLSKNQLKELPEKMPRTLQELRVHENEITKLRKSDFNGLNNVLVIELGGNPLKNSGIENGAFQGLKSLSYIRISDTNITAIPQGLPTSLTEVHLDGNKITKVDAPSLKGLINLSKLGLSFNSITVMENGSLANVPHLRELHLDNNKLLRVPAGLAQHKYIQVVYLHNNNISAVGQNDFCRAGHPSRKASYSAVSLYGNPVRYWEIFPNTFRCVYVRSAIQLGNYK
modifications: murine DCN
Weight of treated muscle (LTA) ([1]; 20 μg mDecorin + 15 μM ZnCl2 intramuscular into left tibialis anterior): 0.0505 g and 0.0485 g and 0.0593 g and 0.0551 g | Growth ([1]; 20 μg mDecorin + 15 μM ZnCl2 intramuscular, treated LTA vs control RTA): 10.75% and 17.43% and 12.31% and 24.10% | Weight of treated muscle (LTA) (mdx mice; 20 μg mDecorin + 15 μM ZnCl2 intramuscular into left tibialis anterior, Day 7, one value per mouse): 0.0682 g and 0.0781 g and 0.0771 g | Weight of treated muscle (LTA) (mdx mice; 20 μg mDecorin + 15 μM ZnCl2 intramuscular into left tibialis anterior, Day 14, one value per mouse): 0.1124 g and 0.103 g and 0.0911 g | Weight of treated muscle (LTA) (mdx mice; 20 μg mDecorin + 15 μM ZnCl2 intramuscular into left tibialis anterior, Day 21, one value per mouse): 0.1041 g and 0.0943 g and 0.1003 g | Growth in % (100*LTA/RTA) − 100 (mdx mice; 20 μg mDecorin + 15 μM ZnCl2 intramuscular, treated LTA vs control RTA, Day 7, one value per mouse): 3.18% and 0.90% and 2.94% | Growth (mdx mice; 20 μg mDecorin + 15 μM ZnCl2 intramuscular, treated LTA vs control RTA, Day 14, one value per mouse): 58.98% and 48.41% and 6.67% | Growth (increase in muscle mass) (mdx mice; 20 μg mDecorin + 15 μM ZnCl2 intramuscular, treated LTA vs control RTA, Day 21, one value per mouse): 53.09% and 66.31% and 37.21% | Growth (increase in muscle mass) (mdx mice; 20 μg mDecorin + 15 μM ZnCl2 intramuscular, treated LTA vs control RTA, Day 21, one value per mouse, listed as decorin): 53.09% and 66.31%
